{
  "source": "paper PMC12464775",
  "about": "“Selective and Potent Peptide Binders of RNF43 for Wnt Signaling Inhibition” (ACS Central Science, 2025)",
  "binders": {"B1": {"name": "GUR-1.6.12.2 Y13A (peptide)", "chain": "EQCTSTQDLCHDASHVCCWPLDCRWAVKYQWFWDCIG"}},
  "molecular_target": "T1, extracellular domain (ECD) of the human RNF43 protein, biotinylated, Q68DV7",
  "T1 chain": "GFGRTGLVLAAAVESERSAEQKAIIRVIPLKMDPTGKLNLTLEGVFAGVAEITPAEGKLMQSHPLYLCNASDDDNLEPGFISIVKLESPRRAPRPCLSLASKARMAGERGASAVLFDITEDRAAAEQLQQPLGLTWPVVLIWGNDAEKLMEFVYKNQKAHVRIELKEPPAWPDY",
  "assay": "SPR",
  "settings": "chain shown with the change;; parent: 1.1 ± 0.07 nM",
  "data": [
    {"binder": "B1", "values": [
      {"measurement": "Kd", "result": 36, "unit": "nM"}
    ]}
  ]
}
